{"source": "patent US20210121527A1", "about": "“METHODS OF TREATING MINIMAL RESIDUAL CANCER” (ICAHN SCHOOL OF MEDICINE AT MOUNT SINAI, priority 2018, published 2021)", "molecules": {"B1": {"name": "BMP7-F9: variant of human mature BMP7, homodimer of SEQ ID NO:8 (protein, listed as Homo sapiens)", "chain": "STGSKQRSQNRSKTPKNQEALRMANVAENSSSDQRQACKKHELYVSFRDLGWQDWIIAPEGYAAGYCEGECAFPLNSYMNATNHALVQTLVHVINPETVPKPCCAPTQLGAISVLYFDDSSNVILKKWRNMVVRACGCH", "modifications": "homodimer"}}, "key": {"T-HEp3 cells [1]": {"system": "T-HEp3 cells", "assay": "T-HEp3 tumors on chicken embryo chorioallantoic membranes (CAM)", "type": "in vivo", "details": "24 hours pre-treatment, then 50 ng/ml daily", "experimental": "FIG. 14B is a schematic illustration of the in vivo experimental procedure used in FIGS. 14C-14D. T-HEp3 cells were pre-treated for 24 hours with BMP7-F9 in vitro and then inoculated on chicken embryo chorioallantoic membranes (“CAM”s) (FIG. 14C), where they were treated daily in vivo with vehicle or BMP7-F9 (50 ng/ml) prior to collection of the tumors and quantification of number of HEp3 HNSCC cells (FIG. 14D) and levels of P-H3 (FIG. 14E). Arrows in FIG. 14E indicate overlapping P-H3 and DAPI fluorescence.\nFIG. 14B is a schematic illustration of the in vivo experimental procedure used in FIGS. 14C-14D. T-HEp3 cells were pre-treated for 24 hours with BMP7-F9 in vitro and then inoculated on chicken embryo chorioallantoic membranes (CAMs) (FIG. 14C), where they were treated daily in vivo with vehicle or BMP7-F9 (50 ng/ml) prior to collection of the tumors and quantification of number of HEp3 HNSCC cells/tumor (FIG. 14D) and levels of P-H3 (FIG. 14E)."}, "HEp3 HNSCC cells": {"system": "HEp3 HNSCC cells", "assay": "ERK/p38 activity ratio, dormancy mRNAs and NR2F1 in HEp3 cells", "type": "cell-based", "experimental": "The effect on the ERK/p38 activity ratio is observed after 2-6 and 24 hours (second through fourth group of columns). In the first 30 minutes, ERK activity is stimulated by BMP7 (first column set). […] Arrows indicate NR2F1 flourescence. Differences in FIG. 13A and FIG. 13B, p<0.05 as calculated using Student's t test.\nBMP7-F9 reduces the ERK/p38 activity ratio and induces various mRNAs in the dormancy signature (FIGS. 13A-13C). […] The effect on the ERK/p38 activity ratio is observed after 2-6 and 24 hours (second through fourth group of columns). In the first 30 minutes ERK activity is stimulated by BMP7 (first column set). […] Differences in FIG. 13A and FIG. 13B, p<0.05 as calculated using Student's t test."}, "T-HEp3 cells [2]": {"system": "T-HEp3 cells", "assay": "Cell titer blue proliferation assay", "type": "cell-based", "details": "48 hours"}, "HEp3-GFP HNSCC tumors": {"system": "HEp3-GFP HNSCC tumors", "assay": "HEp3-GFP HNSCC tumor surgery model in NSG mice, local recurrence and lung DCCs", "type": "in vivo, mouse", "source_text": "FIGS. 15A-15C show the evaluation of BMP7-F9 treatment in a mouse model of disease. FIG. 15A is a schematic illustration of an in vivo experimental procedure used to evaluate the effect of BMP7-F9 on metastasis initiation. […] Tumors were then removed via surgery. 1-2 days after surgery, the adjuvant treatment with BMP7-F9 was continued for another 3, 4, or 6 weeks. Animals were then euthanized and the DCC burden in lung was scored using fluorescence microscopy. […] At those time points, the percentage of local recurrence and DCC incidence was scored. In FIG. 15C, mice were treated as in FIG. 15A, except that the adjuvant treatment was for 4 weeks. The number of GFP positive cells in dissociated lungs was scored following treatment. […] Note that the median of DCC burden drops one log and that BMP-7 apparently cures from DCCs 3 of 7 animals.\nTumors were then removed via surgery. 1-2 days after surgery, the adjuvant treatment with BMP7-F9 was continued for another 4 weeks. Animals were then euthanized and the DCC burden in lung was scored using fluorescence microscopy. […] NSG mice were treated following the protocol in FIG. 15A for 4 weeks. At those time points, the percentage of local recurrence and DCC incidence was scored. The number of GFP positive cells in dissociated lungs was scored following treatment. […] Note that the median of DCC burden drops one log and that BMP-7 apparently cures from DCCs 3 of 7 animals."}, "[3]": {"details": "adjuvant treatment only, 3 weeks"}, "[4]": {"details": "adjuvant treatment only, 6 weeks"}, "[5]": {"details": "neo-adjuvant and adjuvant treatment, 4 weeks"}}, "data": [{"molecule": "B1", "values": [{"measurement": "growth of T-HEp3 cells in vivo (CAM)", "setting": "T-HEp3 cells [1]", "result": "induces growth arrest of T-HEp3 cells"}, {"measurement": "DEC2, p53 and p27 mRNAs", "setting": "HEp3 HNSCC cells; 10 ng/ml, 24 hours", "result": "induces DEC2, p53, and p27 mRNAs"}, {"measurement": "nuclear NR2F1 (immunofluorescence)", "setting": "HEp3 HNSCC cells; 10 ng/ml, 24 hours", "result": "induces nuclear accumulation of NR2F1"}, {"measurement": "ERK/p38 activity ratio (Western blot)", "setting": "HEp3 HNSCC cells; 2, 5 and 10 ng/ml, 2-6 and 24 hours", "result": "reduces the ERK/p38 activity ratio over control"}, {"measurement": "proliferation in vitro (cell titer blue)", "setting": "T-HEp3 cells [2]", "result": "inhibits their proliferation in vitro"}, {"measurement": "+DCCs in lungs (animals)", "setting": "HEp3-GFP HNSCC tumors; [3]", "result": 5}, {"measurement": "+local recurrence (animals)", "setting": "HEp3-GFP HNSCC tumors; [3]", "result": 1}, {"measurement": "DCC incidence (%)", "setting": "HEp3-GFP HNSCC tumors; [3]", "result": 50.0, "unit": "%"}, {"measurement": "Local recurrence incidence (%)", "setting": "HEp3-GFP HNSCC tumors; [3]", "result": 9.1, "unit": "%"}, {"measurement": "Median number of GFP^+/Vimentin^+ tumor cells/lung", "setting": "HEp3-GFP HNSCC tumors; [3]", "result": "0.62E+04"}, {"measurement": "+DCCs in lungs (animals)", "setting": "HEp3-GFP HNSCC tumors; [4]", "result": 3}, {"measurement": "+local recurrence (animals)", "setting": "HEp3-GFP HNSCC tumors; [4]", "result": 0}, {"measurement": "DCC incidence (%)", "setting": "HEp3-GFP HNSCC tumors; [4]", "result": 42.9, "unit": "%"}, {"measurement": "Local recurrence incidence (%)", "setting": "HEp3-GFP HNSCC tumors; [4]", "result": 0.0, "unit": "%"}, {"measurement": "Median number of GFP^+/Vimentin^+ tumor cells/lung", "setting": "HEp3-GFP HNSCC tumors; [4]", "result": 0}, {"measurement": "+DCCs in lungs (animals)", "setting": "HEp3-GFP HNSCC tumors; [5]", "result": 4}, {"measurement": "+local recurrence (animals)", "setting": "HEp3-GFP HNSCC tumors; [5]", "result": 3}, {"measurement": "DCC incidence in lungs %", "setting": "HEp3-GFP HNSCC tumors; [5]", "result": 57.1, "unit": "%"}, {"measurement": "Median number of GFP^+/Vimentin^+ tumor cells/lung", "setting": "HEp3-GFP HNSCC tumors; [5]", "result": "0.02E+04"}, {"measurement": "animals apparently cured from DCCs", "setting": "HEp3-GFP HNSCC tumors; [5]", "result": "3 of 7"}, {"measurement": "local recurrence %", "setting": "HEp3-GFP HNSCC tumors; [5]", "result": 42.9, "unit": "%"}, {"measurement": "median of DCC burden in lungs", "setting": "HEp3-GFP HNSCC tumors; [5]", "result": "drops one log"}]}]}
